From US20070184519A1 (published 2007)

Key:
HLA-DR DRB4*0101 = HLA-DR DRB4*0101 (human); assay: competition with 125I probe, purified MHC II
HLA-DR DRB1*0401 = HLA-DR DRB1*0401 (human); assay: competition with 125I probe, purified MHC II
HLA-DR DRB5*0101 = HLA-DR DRB5*0101 (human); assay: competition with 125I probe, purified MHC II
HLA-DR DRB1*0101 = HLA-DR DRB1*0101 (human); assay: competition with 125I probe, purified MHC II
DRB1*0802 = DRB1*0802 (human, UniProt P01903 26-216, limits assumed); assay: competition vs 125I probe peptide, purified MHC II
DRB1*0301 = DRB1*0301 (human, UniProt P01903 26-216, limits assumed); assay: competition vs 125I probe peptide, purified MHC II
DRB1*0701 = DRB1*0701 (human, UniProt P01903 26-216, limits assumed); assay: competition vs 125I probe peptide, purified MHC II
DRB1*0101 = DRB1*0101 (human, UniProt P01903 26-216, limits assumed); assay: competition vs 125I probe peptide, purified MHC II
DRB1*0405 = DRB1*0405 (human, UniProt P01903 26-216, limits assumed); assay: competition vs 125I probe peptide, purified MHC II
DRB1*0401 = DRB1*0401 (human, UniProt P01903 26-216, limits assumed); assay: competition vs 125I probe peptide, purified MHC II
DRB1*0901 [1] = biological target: DRB1*0901 (human, UniProt P01903 26-216, limits assumed); assay: competition vs 125I probe peptide, purified MHC II
DRB4*0101 = DRB4*0101 (human, UniProt P01903 26-216, limits assumed); assay: competition vs 125I probe peptide, purified MHC II
DRB1*0404 = DRB1*0404 (human, UniProt P01903 26-216, limits assumed); assay: competition vs 125I probe peptide, purified MHC II
DRB5*0101 = DRB5*0101 (human, UniProt P01903 26-216, limits assumed); assay: competition vs 125I probe peptide, purified MHC II
DRB1*1101 [2] = biological target: DRB1*1101 (human, UniProt P01903 26-216, limits assumed); assay: competition vs 125I probe peptide, purified MHC II
DRB1*1302 [3] = biological target: DRB1*1302 (human, UniProt P01903 26-216, limits assumed); assay: competition vs 125I probe peptide, purified MHC II
DRB1*1101 [4] = biological target: DRB1*1101 (human, UniProt P01903 26-216, limits assumed); assay: inhibition of 125I-labelled probe peptide binding to purified HLA class II
DRB1*1302 [5] = biological target: DRB1*1302 (human, UniProt P01903 26-216, limits assumed); assay: as above
DRB1*0901 [6] = biological target: DRB1*0901 (human, UniProt P01903 26-216, limits assumed); assay: as above
HLA-DR DRB1*0802 = HLA-DR DRB1*0802 (human); assay: competition with 125I probe, purified MHC II
HLA-DR DRB3*0101 = HLA-DR DRB3*0101 (human); assay: competition with 125I probe, purified MHC II
[7] = biological target: HLA-DR molecule DRB1*0901 (DR9) (human); assay: inhibition of radiolabelled probe peptide binding to purified MHC class II
[8] = biological target: HLA-DR molecule DRB1*1302 (DR6w19) (human); assay: as above
[9] = biological target: HLA-DR molecule DRB5*0101 (DR2w2a) (human); assay: as above
[10] = biological target: HLA-DR molecule DRB4*0101 (DRw53) (human); assay: as above
[11] = biological target: HLA-DR molecule DRB1*1101 (DR5w11) (human); assay: as above
HLA-DR DRB1*0405 (human) = biological target: T1, HLA-DR DRB1*0405 (human); assay: competition with 125I probe, purified MHC II
T1 chain 1: not shown
T1 chain 2: not shown

[12] = biological target: HLA-DR molecule DRB1*0404 (human); assay: competition vs 125I probe, purified HLA
[13] = biological target: HLA-DR molecule DRB4*0101 (human); assay: competition vs 125I probe, purified HLA
[14] = biological target: HLA-DR molecule DRB1*1101 (human); assay: competition vs 125I probe, purified HLA
[15] = biological target: HLA-DR molecule DRB5*0101 (human); assay: competition vs 125I probe, purified HLA
[16] = biological target: HLA-DR molecule DRB1*1302 (human); assay: competition vs 125I probe, purified HLA
[17] = biological target: HLA-DR molecule DRB1*0401 (human); assay: competition vs 125I probe, purified HLA
[18] = biological target: HLA-DR molecule DRB1*0701 (human); assay: competition vs 125I probe, purified HLA
[19] = biological target: HLA-DR molecule DRB1*0101 (human); assay: competition vs 125I probe, purified HLA
[20] = biological target: HLA-DR molecule DRB1*0405 (human); assay: competition vs 125I probe, purified HLA
[21] = biological target: HLA-DR molecule DRB1*0802 (human); assay: competition vs 125I probe, purified HLA
[22] = biological target: HLA-DR molecule DRB1*0901 (human); assay: competition vs 125I probe, purified HLA
[23] = biological target: HLA-DR molecule DRB1*0301 (human); assay: competition vs 125I probe, purified HLA

## YLDPLIRGLLARPAKLQV [NP7 (TPO Y535-551)]
HLA-DR DRB4*0101
  IC50: 341 nM
HLA-DR DRB1*0401
  IC50: 687 nM
HLA-DR DRB5*0101
  IC50: 476 nM
HLA-DR DRB1*0101
  IC50: 1.6 nM

## DTFRKLDRVYSNFLR
DRB1*0802
  IC50: 87 nM
DRB1*0301
  IC50: 2810 nM

## DTPRKLFRVYSNFLR
DRB1*0701
  IC50: 87 nM
DRB1*0101
  IC50: 13 nM
DRB1*0405
  IC50: 6.9 nM
DRB1*0401
  IC50: 40 nM
DRB1*0901 [1]
  IC50: 28 nM
DRB4*0101
  IC50: 418 nM

## DTFRKQFRVYSNFLR
DRB1*0701
  IC50: 3000 nM
DRB1*0802
  IC50: 81 nM
DRB1*0404
  IC50: 270 nM
DRB5*0101
  IC50: 4.9 nM

## DTFRKLFRVYSNDLR [DTFRKLFRVYSNDLR, listing 1 of 2 here]
DRB1*0701
  IC50: 817 nM
DRB1*0405
  IC50: 487 nM
DRB1*0404
  IC50: 812 nM

## DTFRKLFRVYSNFGR [DTFRKLFRVYSNFGR, listing 1 of 2 here]
DRB1*0401
  IC50: 50 nM

## DTFRKNFRVYSNFLR
DRB1*0101
  IC50: 62 nM
DRB1*0401
  IC50: 91 nM
DRB1*0404
  IC50: 922 nM
DRB1*1101 [2]
  IC50: 5 nM

## DTGRKLFRVYSNFLR
DRB1*0701
  IC50: 312 nM
DRB1*0802
  IC50: 53 nM
DRB1*0401
  IC50: 46 nM
DRB1*0404
  IC50: 175 nM
DRB1*1302 [3]
  IC50: 7.5 nM

## DTKRKLFRVYSNFLR
DRB1*0101
  IC50: 13 nM
DRB1*1302 [3]
  IC50: 4.9 nM
DRB1*0301
  IC50: 6490 nM
DRB4*0101
  IC50: 738 nM

## DTFRKLFRVYSNDLR [DTFRKLFRVYSNDLR, listing 2 of 2 here]
DRB1*1101 [4]
  IC50: 3.6 nM
DRB1*1302 [5]
  IC50: 66 nM
DRB1*0901 [6]
  IC50: 1640 nM

## DTFRKLFRVYSNFGR [DTFRKLFRVYSNFGR, listing 2 of 2 here]
DRB1*1101 [4]
  IC50: 2.8 nM

## DTPYLDITYHFVMQRLPL [Torp. Ach Rec. 195-212]
HLA-DR DRB4*0101
  IC50: 261 nM
HLA-DR DRB1*0401
  IC50: 160 nM
HLA-DR DRB1*0802
  IC50: 555 nM
HLA-DR DRB1*0101
  IC50: 385 nM
HLA-DR DRB3*0101
  IC50: 800 nM

## GLRSLTTLLDALGAQ [EPO 101 analog peptide GLRSLTTLLDALGAQ (SEQ ID NO: 193)]
[7]
  IC50: 277 nM
[8]
  IC50: 953 nM

## GLRSLTTLLGALGAQ [EPO 101 analog peptide GLRSLTTLLGALGAQ (SEQ ID NO: 194)]
[9]
  IC50: 294 nM
[10]
  IC50: 13 nM
[11]
  IC50: 2.6 nM
[8]
  IC50: 858 nM

## PLGFFPDHQLDPAFGANSNNPDWDFNP (modifications not checked) [HBV Pre S1 21-47]
HLA-DR DRB1*0405 (human)
  IC50: 31 nM

## GLRSLGTLLRALGAQ [EPO 101 analog GLRSLGTLLRALGAQ]
[12]
  IC50: 13 nM
[13]
  IC50: 473 nM
[14]
  IC50: 1.4 nM
[15]
  IC50: 13 nM
[16]
  IC50: 739 nM

## GLRSLTTLTRALGAQ [EPO 101 analog GLRSLTTLTRALGAQ]
[17]
  IC50: 394 nM
[14]
  IC50: 3 nM
[15]
  IC50: 13 nM

## GLRSLTTRLRALGAQ [EPO 101 analog GLRSLTTRLRALGAQ]
[18]
  IC50: 4370 nM
[19]
  IC50: 2.4 nM
[17]
  IC50: 211 nM

## GLRSLTTLPRALGAQ [EPO 101 analog GLRSLTTLPRALGAQ]
[12]
  IC50: 13 nM
[20]
  IC50: 524 nM
[13]
  IC50: 112 nM
[21]
  IC50: 7.3 nM
[14]
  IC50: 0.62 nM
[15]
  IC50: 2.8 nM

## GLRSLTTLLDALGAQ [EPO 101 analog GLRSLTTLLDALGAQ]
[12]
  IC50: 9.3 nM
[21]
  IC50: 240 nM

## GLRSLTTLSRALGAQ [EPO 101 analog GLRSLTTLSRALGAQ]
[12]
  IC50: 13 nM
[20]
  IC50: 719 nM
[22]
  IC50: 2230 nM
[14]
  IC50: 1.4 nM
[16]
  IC50: 440 nM

## GLRSLTTLLGALGAQ [EPO 101 analog GLRSLTTLLGALGAQ]
[19]
  IC50: 1.3 nM

## GLRSLTTLARALGAQ [EPO 101 analog GLRSLTTLARALGAQ]
[12]
  IC50: 13 nM
[21]
  IC50: 7.1 nM
[14]
  IC50: 0.93 nM
[23]
  IC50: 234 nM
[16]
  IC50: 610 nM

## GLRSLTTLNRALGAQ [EPO 101 analog GLRSLTTLNRALGAQ]
[17]
  IC50: 28 nM
[13]
  IC50: 167 nM
[22]
  IC50: 337 nM
[14]
  IC50: 0.97 nM
[15]
  IC50: 0.89 nM

## GLRSLTTRLRALGAQ [EPO 101 analog peptide GLRSLTTRLRALGAQ (SEQ ID NO: 192)]
[9]
  IC50: 13 nM
[11]
  IC50: 0.79 nM
